Read-outs that look alike come from different tables or passages of the source.
Tests used:
[1] = target: Sh2 N9 Y169aH NA ectodomain (stabilized tetramer) (influenza A virus A/Shanghai/02/2013 (H7N9))
[2] = target: Sh2 N9 Y169aH NA ectodomain (stabilized tetramer) (influenza A virus A/Shanghai/02/2013 (H7N9)); assay: crystal structure

“Sh2 N9 Y169aH NA ectodomain (stabilized tetramer) (domain or fragment)” showed a stoichiometry N [1] of 4 and a stoichiometry N [2] of 4.
